The series relates to HupA (HU homologue) (Streptomyces coelicolor). The experiment in a line: EMSA (agarose). To be noted: Buffer B: 50 mM NaH2PO4 pH 8.1, 300 mM NaCl, 10% glycerol, 0-40 uM HupA, 120 ng (3.6 nM) pUC19, 3 min room temperature then 15 min 37 C, 1% agarose in TAE ….

The text below walks through data of article PMC9756944.

Take “pUC19 relaxed by E. coli topoisomerase I”: the binding (relaxed by E. coli topoisomerase I (NEB), enzyme inactivated at 65 C) came to 40 µM.
Consider pUC19 negatively supercoiled, for which the binding (bound at 15 uM HupA, 3.6 nM plasmid, 300 mM NaCl) was determined as 15 µM.
